Measured values reported in article PMC6464389 (Circulation, 2019).

Target: recombinant GPIbα extracellular domain (UniProt P07359 17-531)
Test: SPR

Kd: 900 nM
B1: recombinant wild-type protein disulfide isomerase (wtPDI) (enzyme)
chain: not shown
